Biological target: T1, PfSir2A (Plasmodium falciparum Sir2), GST fusion (Plasmodium falciparum, UniProt Q8IE47 1-273)
T1 sequence (looked up): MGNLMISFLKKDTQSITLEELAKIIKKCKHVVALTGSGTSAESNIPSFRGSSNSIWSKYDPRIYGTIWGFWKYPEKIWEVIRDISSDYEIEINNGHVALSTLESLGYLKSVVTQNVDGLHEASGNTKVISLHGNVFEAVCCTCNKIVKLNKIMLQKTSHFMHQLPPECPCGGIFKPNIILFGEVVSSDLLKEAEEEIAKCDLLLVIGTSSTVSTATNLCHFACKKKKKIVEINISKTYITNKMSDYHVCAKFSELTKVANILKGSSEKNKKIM
Test: pull-down

B1: PfAlba3 (Plasmodium falciparum Alba 3), His-tag fusion protein (natural protein, UniProt Q8IJX8 1-107, looked up)
chain: MASTEEVSQERSENSIQVSMTKKPTFYARIGKRMFTGNEEKNPFDEVIITGLGNATKIAIGAASIMEKEDIGQIVKVQTAYFSSDRINRRIPKITIVLKKHPDFVAN
**Q.** Does B1 bind?
**A.** binds

— publication PMC3273813 (Nucleic Acids Research, 2011)
